According to the supplement of paper PMC9112550, “Optimization of the antimicrobial peptide Bac7 by deep mutational scanning” (BMC Biology, 2022):

System: Escherichia coli TOP10
Assay: shrunken log2 fold change of peptide-encoding DNA abundance (4.5 h post-induction vs induction); higher = less antimicrobial activity (less host growth inhibition)
Conditions: time post-induction: 4.5 h; library: site-saturation at positions 5, 18, 19, 20
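Note: peptides expressed intracellularly from a pBAD plasmid library in pooled LB shake-flask culture, induced with 0.3% L-arabinose, DNA abundance read by NGS, three biological replicates, DESeq2 with apeglm shrinkage.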

| Sequence | shrunken log2 fold change |
| --- | --- |
| RRIRDRPPRLPRPRPRPVMKPRP | -0.0716 |
| RRIRERPPRLPRPRPRPGEGPRP | 0.028 |
| RRIRERPPRLPRPRPRPLNMPRP | -0.528 |
| RRIRHRPPRLPRPRPRPNKFPRP | -0.284 |
| RRIRVRPPRLPRPRPRPHWWPRP | 0.355 |
| RRIRPRPPRLPRPRPRPWSYPRP | -0.214 |
| RRIRHRPPRLPRPRPRPGEAPRP | 0.051 |
| RRIRYRPPRLPRPRPRPPCTPRP | -0.33 |
| RRIRNRPPRLPRPRPRPHDYPRP | 0.0503 |
| RRIRTRPPRLPRPRPRPNYIPRP | -0.74 |
| RRIRVRPPRLPRPRPRPNNIPRP | -0.937 |
| RRIRMRPPRLPRPRPRPHSKPRP | -0.0418 |
| RRIRCRPPRLPRPRPRPNHPPRP | -0.153 |
| RRIRVRPPRLPRPRPRPMMKPRP | 0.168 |
| RRIRMRPPRLPRPRPRPDETPRP | 0.103 |
| RRIRKRPPRLPRPRPRPVEGPRP | -0.006 |
| RRIRLRPPRLPRPRPRPYMYPRP | -0.759 |
| RRIRDRPPRLPRPRPRPVYWPRP | -0.469 |
| RRIRGRPPRLPRPRPRPYMLPRP | -0.0745 |
| RRIRWRPPRLPRPRPRPEAHPRP | 0.219 |
| RRIRVRPPRLPRPRPRPNFKPRP | -0.0173 |
| RRIRSRPPRLPRPRPRPNPTPRP | 0.017 |
| RRIRTRPPRLPRPRPRPYWYPRP | -0.574 |
| RRIRQRPPRLPRPRPRPAKCPRP | 0.0161 |
| RRIRPRPPRLPRPRPRPNRIPRP | -0.132 |

| Sequence | shrunken log2 fold change |
| --- | --- |
| RRIRVRPPRLPRPRPRPWWPPRP | 0.162 |
| RRIRVRPPRLPRPRPRPCESPRP | -0.374 |
| RRIRGRPPRLPRPRPRPEIHPRP | 1.13 |
| RRIRIRPPRLPRPRPRPAVIPRP | 0.0759 |
| RRIRWRPPRLPRPRPRPAVKPRP | -0.197 |
| RRIRCRPPRLPRPRPRPHDTPRP | -0.427 |
| RRIRQRPPRLPRPRPRPEKVPRP | -0.155 |
| RRIRFRPPRLPRPRPRPIWTPRP | -0.0298 |
| RRIRPRPPRLPRPRPRPMFMPRP | 0.0765 |
| RRIRYRPPRLPRPRPRPQLCPRP | -0.0902 |
| RRIRQRPPRLPRPRPRPMDRPRP | 0.0291 |
| RRIRLRPPRLPRPRPRPVMLPRP | -0.495 |
| RRIRVRPPRLPRPRPRPYYSPRP | -0.235 |
| RRIRHRPPRLPRPRPRPTYSPRP | -0.489 |
| RRIRLRPPRLPRPRPRPEQVPRP | -0.117 |
| RRIRYRPPRLPRPRPRPWLLPRP | -1.51 |
| RRIRGRPPRLPRPRPRPEKKPRP | 0.102 |
| RRIRYRPPRLPRPRPRPMYLPRP | -0.0959 |
| RRIRYRPPRLPRPRPRPVGMPRP | -0.083 |
| RRIRGRPPRLPRPRPRPTYFPRP | 0.0176 |
| RRIRERPPRLPRPRPRPKDDPRP | 0.104 |
| RRIRFRPPRLPRPRPRPKKYPRP | -0.242 |
| RRIRWRPPRLPRPRPRPVELPRP | -0.00876 |
| RRIRGRPPRLPRPRPRPIWEPRP | 0.019 |
| RRIRQRPPRLPRPRPRPNPPPRP | 0.0904 |

| Sequence | shrunken log2 fold change |
| --- | --- |
| RRIRGRPPRLPRPRPRPCAHPRP | 0.251 |
| RRIRYRPPRLPRPRPRPFKFPRP | 0.0599 |
| RRIRLRPPRLPRPRPRPRIEPRP | -0.0339 |
| RRIRKRPPRLPRPRPRPGWNPRP | 0.106 |
| RRIRLRPPRLPRPRPRPEKEPRP | 0.263 |
| RRIRIRPPRLPRPRPRPLHPPRP | -0.0764 |
| RRIRYRPPRLPRPRPRPLVDPRP | -0.289 |
| RRIRLRPPRLPRPRPRPVFSPRP | -0.112 |
| RRIRVRPPRLPRPRPRPAMMPRP | 0.464 |
| RRIRERPPRLPRPRPRPKCEPRP | 0.0279 |
| RRIRDRPPRLPRPRPRPKHPPRP | 0.0483 |
| RRIRVRPPRLPRPRPRPGIHPRP | -0.118 |
| RRIRRRPPRLPRPRPRPFIQPRP | -0.0404 |
| RRIRFRPPRLPRPRPRPQGAPRP | -0.0798 |
| RRIRMRPPRLPRPRPRPCKKPRP | 0.106 |
| RRIRPRPPRLPRPRPRPKSGPRP | 0.356 |
| RRIRPRPPRLPRPRPRPIEEPRP | -0.0376 |
| RRIRSRPPRLPRPRPRPYPHPRP | -0.227 |
| RRIRERPPRLPRPRPRPTHEPRP | 0.317 |
| RRIRKRPPRLPRPRPRPPQPPRP | 0.856 |
| RRIRSRPPRLPRPRPRPNNYPRP | -0.597 |
| RRIRARPPRLPRPRPRPQCQPRP | 0.457 |
| RRIRVRPPRLPRPRPRPLMQPRP | -0.0132 |
| RRIRTRPPRLPRPRPRPSPNPRP | -0.337 |
| RRIRQRPPRLPRPRPRPGWTPRP | 0.286 |

| Sequence | shrunken log2 fold change |
| --- | --- |
| RRIRSRPPRLPRPRPRPNYSPRP | -0.401 |
| RRIRLRPPRLPRPRPRPAGHPRP | -0.0387 |
| RRIRVRPPRLPRPRPRPMNYPRP | -0.128 |
| RRIRIRPPRLPRPRPRPWNMPRP | 0.0777 |
| RRIRHRPPRLPRPRPRPHSVPRP | -0.0237 |
| RRIRSRPPRLPRPRPRPNAAPRP | 0.675 |
| RRIRCRPPRLPRPRPRPFHEPRP | -0.917 |
| RRIRHRPPRLPRPRPRPLFYPRP | -0.702 |
| RRIRMRPPRLPRPRPRPRHIPRP | 0.0163 |
| RRIRYRPPRLPRPRPRPDYNPRP | -0.475 |
| RRIRMRPPRLPRPRPRPWPWPRP | -0.00171 |
| RRIRQRPPRLPRPRPRPDNHPRP | -0.35 |
| RRIRGRPPRLPRPRPRPAVDPRP | 0.896 |
| RRIRARPPRLPRPRPRPYCGPRP | -0.192 |
| RRIRIRPPRLPRPRPRPIQCPRP | 0.0629 |
| RRIRPRPPRLPRPRPRPEDSPRP | 0.159 |
| RRIRPRPPRLPRPRPRPFTSPRP | -0.512 |
| RRIRSRPPRLPRPRPRPVTPPRP | 0.0877 |
| RRIRGRPPRLPRPRPRPANCPRP | 0.147 |
| RRIRVRPPRLPRPRPRPRNFPRP | -0.275 |
| RRIRWRPPRLPRPRPRPPKGPRP | 0.61 |
| RRIRHRPPRLPRPRPRPAFYPRP | -0.332 |
| RRIRVRPPRLPRPRPRPVCDPRP | 0.0894 |
| RRIRQRPPRLPRPRPRPSVHPRP | -0.276 |
| RRIRWRPPRLPRPRPRPHSGPRP | 0.00842 |

| Sequence | shrunken log2 fold change |
| --- | --- |
| RRIRFRPPRLPRPRPRPIVKPRP | -0.395 |
| RRIRYRPPRLPRPRPRPMYEPRP | -0.101 |
| RRIRHRPPRLPRPRPRPWSLPRP | -0.121 |
| RRIRLRPPRLPRPRPRPERDPRP | -0.189 |
| RRIRARPPRLPRPRPRPIYKPRP | -0.172 |
| RRIRNRPPRLPRPRPRPRYSPRP | -0.309 |
| RRIRPRPPRLPRPRPRPHEPPRP | 0.239 |
| RRIRQRPPRLPRPRPRPQWDPRP | 0.0263 |
| RRIRGRPPRLPRPRPRPHYMPRP | 0.00569 |
| RRIRRRPPRLPRPRPRPAEVPRP | 0.219 |
| RRIRWRPPRLPRPRPRPSSWPRP | 0.0927 |
| RRIRSRPPRLPRPRPRPCPGPRP | -0.234 |
| RRIRQRPPRLPRPRPRPWYDPRP | -0.138 |
| RRIRPRPPRLPRPRPRPDIPPRP | -0.219 |
| RRIRNRPPRLPRPRPRPDGAPRP | 0.0931 |
| RRIRERPPRLPRPRPRPTHVPRP | 0.231 |
| RRIRPRPPRLPRPRPRPINEPRP | -0.54 |
| RRIRPRPPRLPRPRPRPQYDPRP | -0.638 |
| RRIRKRPPRLPRPRPRPTDNPRP | 0.219 |
| RRIRCRPPRLPRPRPRPLQYPRP | -0.0878 |
| RRIRRRPPRLPRPRPRPVGEPRP | 0.333 |
| RRIRERPPRLPRPRPRPTMTPRP | -0.389 |
| RRIRMRPPRLPRPRPRPSWSPRP | 0.154 |
| RRIRMRPPRLPRPRPRPVMVPRP | 0.0724 |
| RRIRSRPPRLPRPRPRPNRKPRP | -0.596 |

| Sequence | shrunken log2 fold change |
| --- | --- |
| RRIRARPPRLPRPRPRPDQTPRP | -0.0212 |
| RRIRPRPPRLPRPRPRPDYYPRP | -0.346 |
| RRIRRRPPRLPRPRPRPQWAPRP | 0.0248 |
| RRIRTRPPRLPRPRPRPCGFPRP | 0.268 |
| RRIRKRPPRLPRPRPRPNNRPRP | 0.0938 |
| RRIRYRPPRLPRPRPRPNMIPRP | -1.34 |
| RRIRVRPPRLPRPRPRPQVQPRP | -0.208 |
| RRIRRRPPRLPRPRPRPNYVPRP | -0.338 |
| RRIRVRPPRLPRPRPRPFSWPRP | -0.144 |
| RRIRQRPPRLPRPRPRPICLPRP | 0.144 |
| RRIRPRPPRLPRPRPRPDCSPRP | 0.152 |
| RRIRCRPPRLPRPRPRPQSLPRP | 0.0939 |
| RRIRSRPPRLPRPRPRPYTTPRP | -0.0205 |
| RRIRRRPPRLPRPRPRPQWCPRP | 0.00425 |
| RRIRPRPPRLPRPRPRPYYDPRP | -0.745 |
| RRIRTRPPRLPRPRPRPLWNPRP | -0.44 |
| RRIRPRPPRLPRPRPRPCCNPRP | -0.301 |
| RRIRSRPPRLPRPRPRPQSLPRP | -0.232 |
| RRIRGRPPRLPRPRPRPIKFPRP | 0.211 |
| RRIRIRPPRLPRPRPRPGILPRP | -0.128 |
| RRIRVRPPRLPRPRPRPMRYPRP | 0.453 |
| RRIRIRPPRLPRPRPRPNATPRP | -0.12 |
| RRIRGRPPRLPRPRPRPWGFPRP | -0.126 |
| RRIRWRPPRLPRPRPRPMFGPRP | -0.0457 |
| RRIRNRPPRLPRPRPRPMDPPRP | -0.0437 |
